Experiment: soluble on expression in E. coli; label from the status in PepcDB or PDB records

With “MGSDKIHHHHHHMTTSATKEALFSPDCLEFLAKLASNNERDWFKAHQAEYEAKVRTPALNFIGAMAPHIQQLSPRLTAVPKKVGGSLMRPQRDARFSSDKTPYKVNVGIQFRHFQGKDVHAPGLYLHIANDGCFLGAGIWHPDSKALSQIRSCIDDNPNAYKQALKQLSAAGFAMEGDSLQRPPKGYDKHHPMLDELKRKDFIAIKPLDTQQLFTKDFDTWCAEQFNQVNKLMGYLCFALDLDY” as the sequence, how does the “soluble on expression in E. coli” value read?
Its value is “not soluble”.

With “MGSDKIHHHHHHMTTVLEKFEKLKTEHAPGQEVRQKTPAFEELLIGEKLEGRTVDFSHGDVDAFLPTPGAFEEFSDGVHSGGKQAYTVYRGLADLREILSVRLTSFTGAPVNAADNLIITPGTQGALFLSVAATVAAGDKVAIVQPDYFANRKLVEFFEAEMLPVQLDYLGTDKAAGLDLNQLEAAFRDGARVFVFSNPNNPTGAVYSTEEIDAIAALADRYGAMVIVDQLYSRLLYEGTEYQHLRAVGGTGRDNVITIMGPSKTESLSGYRLGVAFGPSSVIERMERLQAIVSLRAAGYNQAVLQTWFSEPDGWMSERIKLHQAIRDDLLTRFRARADVAVRTPQAGSYMFAKLPRLRVSPIDFVKILRHQATVIVTPGSEFSPHTASSIRLNFSQNHAAATGAVERLVTLIERYREARP” as the sequence, how does the “soluble on expression in E. coli” value read?
The value was “not soluble”.

Which “soluble on expression in E. coli” value does the source give for “MGSDKIHHHHHHMTVAVDLPIPAKLVPVFTKENVRYRGAHGGRGSAKTRTFAMMSAVRAYQAAESGTSGVILCAREFMNSLEESSMEEVKQAIRSIPWLDDYFEIGEKYIRTKNRLVNYVFCGLRHNLDSIKSKARILLAWIDEAESVSETAWKKLRPTVRESGSEIWVTWNPEKDGSATDKRLRKKPPKSSIIVEMNYSDNPWFPDVLEEERQEDLESLDHSDYAWIWEGAYLENSEKQVLANKYKIESFPDDLWMQADRLLFGADFGFARDPSTLLRMFILDNCLYIDREAYSVGVELDHMPAFYDQVPESRKWPIKADSARPETISYLKRQGFNISAAKKWQGSVEDGITFLRGFKKIIIHPRCKETAKEARLYSYKVDRITGEVLPIIEDAHNHCWDAARYGLDGYIKGRTTVWDIM” here?
Its value is “not soluble”.

Which “soluble on expression in E. coli” value does the source give for “MGSDKIHHHHHHMTVELKNILDLEKWEKLQESLALSTRLAIILVDYKGRPVTKHSQVQPFCQLVRHSPELSKLCEKCDARGGLEAVRTGQPFIYRCHFNIVDMAIPIIVDDQYVGAIMAGEVLLEDHQEELEQVLTMNDAFIQEFLVTHQELYQQYPVLELADLEKSATLIADLSQYIISEAIKKDYLINTYKQSLQISSRKEELEPLNMIQKDIQQTLLTAQLTPSSAYQTKNKQLQPVLDALWENKSLRLNLQELADLVHLTPTYLSRLLKEEFGIPFSQFYRQLKITWAKQLLLETDKTIAQISEDLGFVEDSYFVRIFKQETGETPLKYRKRKNRA” here?
Its value is “not soluble”.

With “MGSDKIHHHHHHMTWQVWRLGGLAITMVASLLLLDACSRDKAPVQIRSAVSQLPQTLDPRYATDAASARVNRLIYRSLVDFDVHARPAPSLASWRVLSPRLFRFTLGRHGRDFHDGRYLTAEDVAATYQSVIELADSPHAAEFANISKIEVRDENTLDFFLHDADSNFPARLILGILPAELIARQHDFSREPVGSGPFKFVSWQRSLKLERRSDKKRFVFEEVRDPTVRVLKLVRGEADILQGDLPPELVNYLKQQPGIDVQESEGSNFAYIGLNLQDDVLRNPLVRQALAHAIDRESIIKHALVGHSRLAESILPPEHWAGNGNLKPYEYNPVLARELLLRAGVSLPLKLVYKTSTDAQRVRLATMMQAQMRDAGIQLEIRSLDWGTFFDDIKRGNFQLYGLMWVGIKTPEIYHHAFHSSSVPPKGANRGHYADPKTDELIAVSDWASVAERVHAQLPYIPLWYEGQFAATRDHIKGYSLQPDGSWDGLVDVKRSKLKSVFPGRNQSAGM” as the sequence, how does the “soluble on expression in E. coli” value read?
Its value is “not soluble”.

Which “soluble on expression in E. coli” value does the source give for “MGSDKIHHHHHHMTYELSTDREFDLIAIGRACIDLNAVEYNRPMEETMTFSKYVGGSPANIVIGSSKLGLKAGFIGKIADDQHGRFIESYMRGVGVDTSNLVVDQEGHKTGLAFTEIKSPEECSILMYRQDVADLYLSPEEVNEAYIRRSKLLLVSGTALSKSPSREAVLKAIRLAKRNDVKVVFELDYRPYSWETPEETAVYYSLVAEQSDIVIGTREEFDVLENRTEKGDNDETIRYLFKHSPELIVIKHGVEGSFAYTKAGEAYRGYAYKTKVLKTFGAGDSYASAFLYALISGKGIETALKYGSASASIVVSKHSSSDAMPSVEEIEALIEKDETITIA” here?
Its value is “not soluble”.

Which “soluble on expression in E. coli” value does the source give for “MGSDKIHHHHHHMVANPALPEGISDLPAGTLASVVTYLEMKTPPPIKGLETPPGLRLLRHDAPDVEWYCRLYRLVGEDYLWFSRLMWDYATLAAHLASDRVEVWSLQKQGVDLGLLELEWMQDGDCELSFFGLSKELIGAGVGRWLMEHATARAFSREISRFFVHTCTLDSPQALGFYMRSGFVPYGRAVEIAEDPRLTGLIPKTAAAHVPLIQR” here?
The value was “not soluble”.

For “MGSDKIHHHHHHMVEVLTESNQSLDSLEALCSKYRIERGIVATVVDLNERILAELAALPFPLLWLNHETPLPVGNLYETPETLGYDRIAAVVGANEQFPHNDILVIDAGTCITYEFIDSKGQYHGGNISPGMQMRYKALHQFTGRLPLIDSNGRKLPMGRDTETAIRAGVLKGMEYEISGYIEAMKHKYPELLVFLTGGDDFSFDSSVKSAIFADRFLVLKGLNRILNYNNGRI”, which “soluble on expression in E. coli” value is on record?
The value was “not soluble”.

Which “soluble on expression in E. coli” value does the source give for “MGSDKIHHHHHHMVIVARCNHNGSNLTEQFPPINDIRSNSRQLVRELGFMGGDFAGTDLPPSSVHALIEIEACPGITAKDLGKLLRLEKSSVSRMLRKLILSGDIVEQTDDVDSRIKRLRLTGQGREKVSGINGFANRQVSGALAQLTATDAHTILEGLRLYAGALGARTGTPASTVDIKQGYRPGIIARITQMHALYYARTSGFGQRFESVVAEGLAAFCNRLENPRNAIWVAMRGQEIIGSVAIDGEDLGADIAHLRWFIVDDGIRGGGVGRRLLATALAFADQAGFAETHLWTFNGLLAARHLYETHGFTCTEEYPGSQWGSEVLEQRFIRPRPE” here?
The value was “not soluble”.

Which “soluble on expression in E. coli” value does the source give for “MGSDKIHHHHHHMVKGLYTAHTGMVNEMKRMDVLANNLANSDTYGFKKEGTTSHSFKNELAIKIKDTSNYGLHKNLGSMTYGVHLGETYTDWDEGSFKVTDNPTDLAIGGKGFFAVAFTDKSGQTSVKYTRDGAFKVNADGYLVTADGDHVLNATGALSGDGGEANWVKVDPNEKFSVNSLGYITQNNQLVGTIGVVDVDNYDYIEKYGENLYNLTAGGNIIASDAEIEQGALETSNVNVVNEMVLG” here?
The value was “not soluble”.

For “MGSDKIHHHHHHMVLALNYNMHGVNIRSENAAKPHTMPSRYLCEYIRSIEKNGHALDFGCGKLRYSDELISKFDEVTFLDSKRQLEREQIIRGIKTKIIDYVPRYYKNANTVAFEDVDKIIGGYDFILCSNVLSAVPCRDTIDKIVLSIKRLLKSGGETLIVNQYKSSYFKKYETGRKHLYGYIYKNSKSVSYYGLLDELAVQEICSSHGLEILKSWSKAGSSYVTVGSCNAI”, which “soluble on expression in E. coli” value is on record?
Its value is “not soluble”.

For “MGSDKIHHHHHHMVLLILKFHGESVKIKPECAICIIRQVVDAANEITDDEREQFRLIKSTMEVIKDVYGESAVPAWMGTVVHRYLKKISNNNDPYKNLKEKANKIALQYLDKVREMSNTDDELERLRKKVLATIAGNVIDFGAYSTGINIEKLIEDTLNGELKIDNSRKLLNDLKDKNIKKILYICDNAGEIIFDRVLMEEIKKYDKDIVAVVKGKPILNDATLEDAKIAKIDEIAKVITTGSDIIGIILEECSEEFLKEFESADLIIAKGMGNYESLTEYEDKIDKPIYYILKAKCKPVAENIGVDVGDNVLLKR”, which “soluble on expression in E. coli” value is on record?
Its value is “not soluble”.

For “MGSDKIHHHHHHMVVDGPRDPRMNMAIDEAILRVGAAPTLRIYMWLPGGLTLGRRQSVEDVNLAEAEKRGYVLVRRPTGGAALLHPWEREITYSLVLDSRHPYYSLDVAESAATIAGGVALALEELGIATRVGGYTPPPGVIGGLCYVRPGSSDVVVAGRKVSGSAQRRIGGRLLQHGTLLLRFDPEEWLSIIPVKGAGPSDLASRIAGIEDLAGRSYSFSEVADALVKGFSKALGLEPEPSGLEGREVEEALRLYRKKYSSPRWNLEGDEP”, which “soluble on expression in E. coli” value is on record?
Its value is “not soluble”.

For “MGSDKIHHHHHHMYEHQTYEAILVRMLARVPETIDKREGSLIYDALAPGAAELAQAYAELVVNNNLSFADTASGEFLTRRAAEFGIKRKVATKAWRRGGFLDSNNALLNIPLGSRYSIGGLNYTAIEQISTGAYVLECETAGTAGNQQFGDLLPIAYVNSLARAELTEVLVPGEDEETDEALLSRYYETVNEPAFGGNMADYRQKVNAINGVGGTKVFPTWAGGGTVKCTIIASDWAKPSPELVNEVQSTMDPEENQGMGLGQAPIGHAVTIAGVDKVTVDVETTLTLAPGVTPGQVQSDVEAILDAYLLEQRKTWAAQTQIIIRMAQIDARMLTVQGVEDVTGTKLNGTEANFLLDEEEIPILGTVIINE”, which “soluble on expression in E. coli” value is on record?
Its value is “not soluble”.

With “MGSDKIHHHHHHMYKIGIDVGGTNTDAVILDENQQLIHSVKMPTSEDIETGITESLHRVLSETGIDRSKVTHAMLGTTQCTNAIVERKKLAKVGVLRLGYPATASVLPYTAWPEDMVGFLSGKYKLTGGGYEYDGQVLSEINEAEIRETLASWKGEVESVAVVGVFSSLKNDQELAVQKIIEEELGADIPVSISSSVGSVGLIERENATILNAALFKVIAATSDGFEKALEQEGIEHAEIYLCQNDGTLMSLNYARQFPILTIACGPTNSIRGASYLAGLKDAMVLDVGGTTSDIGVLTDGFPRESSLAVDVGGVRTNFRMPDIISIGLGGGSIVREKDGDITIGPDSVGYRISEEALVFGGKTMTTTDIAVRLGMAEIGNPELVAHIPTDFAEKAYKKIADMTEDAIDKMKTSSGSVSLVLVGGGSMIIPDEISGVAQIFRDKNGPVANAIGASISQISGQYEQIYIYSQIEREEALQDAEQKAREQATLAGAVTDSIEVVEVEEIPLAYHPGNATRLRVKVVGDLV” as the sequence, how does the “soluble on expression in E. coli” value read?
Its value is “not soluble”.

For “MGSDKIHHHHHHMYKWGWTMTSSVAQLLSTPVEEVAGKEVPVLDKDFSLAEILKAVEKAKIDRAFLTEGNSIRGVLTFRDILDKIATVRTKQAYIGGLHGSSFMNEPVKYVEVGREVSHALETMANGMFTSVPVVGAGGVVEGGITRFELARLVKDLEISQDTSVRDVMRTFLVSVNLQTRILHVRQLLYEYDISVIPVMDEGRFVGVVGLDELMAIIKSFYNLARGEPKRHTPLKYVIVADAIRMRPPVVTPDASLAEAAEKMLEKRYRAVVVVDSEKPVGFTSGLELANFLLTKKSS”, which “soluble on expression in E. coli” value is on record?
Its value is “not soluble”.

With “MGSDKIHHHHHHMYLKGDFHIHTNASDGKYTPEKVLELAKTAGINILAITDHDTTSSVKKAIAVGNELGIKVLPGIELSTLKNGESIHILGYFRDISYENKDFQNFLTEMQNYRVWRAKKIVENLDTYFNIKLDYASILKEASNVIARPHIARAILAKGYNYTYEYIFNNILNKESPAYIPNKKVSVEEGIKLLKAANAVVVLAHPVLIKKTPIEDFLKLDFDGIEAIYPMNSESDTERFLSLAKIYNKLVTAGSDFHTDDSSDTKHGRIGEIYLDENNIDILLSK” as the sequence, how does the “soluble on expression in E. coli” value read?
Its value is “not soluble”.

For “MGSDKIHHHHHHMYPNLTSEQALLILQSARNPDKAYDLFAQAAEVRDKVFGKRLWWSSGSGGIFPCLVKPRCSYCTYYTEKLFPTDVLLTGLELIESLGIQQFHISGGTDLDEGYDEQLLELVQAIKTRSGLKLEINLGPSFRQETVLELKKLGIDSVTSSLECNTPAIFARAKPGDSLERRRELLHHCEEADMPSRSMMLLGLGETDQERIEHLFYLQQFKKLYQLRLSRFMPFPGTLYKDRSRCSPWDTALITAMARLILPNLEISLAAGNSNDDIPLWYLAGGGSQLLGVSITRKEPPATPDVDVYAIGEGAYVVDKRQQVARVLEGMNLEVTCEMPDYRALQSQF”, which “soluble on expression in E. coli” value is on record?
The value was “not soluble”.

For “MGSDKIHHHHHHMYQKGVSTREIGHFIEKILGHSYSASTISQVTDVVTEDITQWQQRPLKKRYSVLYLDGTYLKLRREDVANEVVYLVVGVTEEGYREILGFYVGGQESANGWRNILLDLYSRGLEEVLLGVFDGLAGLEEAMKAVYPKADVQRCVVHKVRNALHAVRKKDQPAVAQDFKPIYQANTYEEAKNRFKEFKENWQKRYPKVVATWEKDLDVLLTFLSYPSTIRPMIYTTNIIERTMKEIKKRTKTMNSLPNEKAAEKIVYLQAIDYNERWATRRLRGFGEAYEALQEMFKQRYSGP”, which “soluble on expression in E. coli” value is on record?
The value was “not soluble”.

Reference: the DeepSol protein solubility set
